From paper PMC4526367, “Weak Interactions between Salmonella enterica FlhB and Other Flagellar Export Apparatus Proteins Govern Type III Secretion Dynamics” (PLoS ONE, 2015)
Where two headings read alike, the source gives them in different places.

Key:
[1] = target: cytoplasmic domain of FlhA (FlhAC) (UniProt P40729); experiment: BLI; FlhAC ligand on streptavidin sensors, FlhBC analyte 2, 1, 0.5, 0.25 and 0.125 uM; HBS-T, 25°C; one-state association fits, global two-state dissociation fit, steady state analysis, kobs vs [FlhBC]
[2] = target: cytoplasmic domain of FlhA (FlhAC) (UniProt P40729); experiment: as above; remark: listed apart in the source
FliK = FliK (UniProt P26416); experiment: BLI
[3] = target: FlhB cytoplasmic domain (Salmonella enterica) (UniProt P40727); experiment: SPR; conditions: cited from earlier work
FliI [4] = target: T1, FliI (UniProt P26465 1-456, biotin by amine crosslinking (NHS-LC-LC-biotin) when used as ligand); experiment: BLI; conditions: both partners purified
T1 construct: source: E. coli BL21DE3(pLysS), purified (Talon IMAC, gel filtration into HBS-T)
T1 sequence: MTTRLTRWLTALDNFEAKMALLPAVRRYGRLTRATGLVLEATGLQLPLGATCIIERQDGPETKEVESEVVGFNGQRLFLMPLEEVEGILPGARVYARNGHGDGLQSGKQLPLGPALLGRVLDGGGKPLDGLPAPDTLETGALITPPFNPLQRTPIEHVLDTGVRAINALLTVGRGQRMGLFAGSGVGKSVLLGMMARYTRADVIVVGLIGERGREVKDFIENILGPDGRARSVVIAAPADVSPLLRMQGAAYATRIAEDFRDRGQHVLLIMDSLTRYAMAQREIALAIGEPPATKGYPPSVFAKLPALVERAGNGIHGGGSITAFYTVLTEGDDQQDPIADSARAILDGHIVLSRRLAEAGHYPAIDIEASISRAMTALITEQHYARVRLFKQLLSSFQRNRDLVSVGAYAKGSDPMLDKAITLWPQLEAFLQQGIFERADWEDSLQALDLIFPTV

FliI [5] = target: T1, FliI; experiment: BLI; FlhBC ligand on streptavidin sensors, FliI analyte 4, 2, 1, 0.5 and 0.25 uM without ATP; HBS-T, 25°C; global one-state association-then-dissociation model; conditions: both partners purified
[6] = target: T2, full-length wild-type FlhB (Salmonella enterica, UniProt P40727); experiment: BLI; conditions: both partners purified
T2 construct: also called FlhB from pMM9; source: overproduced from pMM9, purified under nondenaturing conditions from solubilized crude membrane fractions
T2 sequence 1: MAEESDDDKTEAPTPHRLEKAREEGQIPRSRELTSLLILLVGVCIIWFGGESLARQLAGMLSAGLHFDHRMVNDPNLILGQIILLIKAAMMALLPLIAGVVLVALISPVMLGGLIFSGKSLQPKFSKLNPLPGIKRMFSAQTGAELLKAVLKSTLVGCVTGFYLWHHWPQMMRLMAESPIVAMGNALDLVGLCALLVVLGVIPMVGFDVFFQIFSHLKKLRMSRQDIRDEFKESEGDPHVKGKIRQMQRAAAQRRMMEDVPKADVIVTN
T2 sequence 2: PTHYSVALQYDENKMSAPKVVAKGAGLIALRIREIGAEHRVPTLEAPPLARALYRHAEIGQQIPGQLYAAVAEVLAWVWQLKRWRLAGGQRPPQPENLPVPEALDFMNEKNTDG

[7] = target: the molecule itself; experiment: AUC; sedimentation equilibrium, buffer with 33 mM C8E5, scans at 280 nm; fit to a single-species model

Sequence of cytoplasmic domain of FlhA (FlhAC) (P40729 whole entry, the tested form may be a part): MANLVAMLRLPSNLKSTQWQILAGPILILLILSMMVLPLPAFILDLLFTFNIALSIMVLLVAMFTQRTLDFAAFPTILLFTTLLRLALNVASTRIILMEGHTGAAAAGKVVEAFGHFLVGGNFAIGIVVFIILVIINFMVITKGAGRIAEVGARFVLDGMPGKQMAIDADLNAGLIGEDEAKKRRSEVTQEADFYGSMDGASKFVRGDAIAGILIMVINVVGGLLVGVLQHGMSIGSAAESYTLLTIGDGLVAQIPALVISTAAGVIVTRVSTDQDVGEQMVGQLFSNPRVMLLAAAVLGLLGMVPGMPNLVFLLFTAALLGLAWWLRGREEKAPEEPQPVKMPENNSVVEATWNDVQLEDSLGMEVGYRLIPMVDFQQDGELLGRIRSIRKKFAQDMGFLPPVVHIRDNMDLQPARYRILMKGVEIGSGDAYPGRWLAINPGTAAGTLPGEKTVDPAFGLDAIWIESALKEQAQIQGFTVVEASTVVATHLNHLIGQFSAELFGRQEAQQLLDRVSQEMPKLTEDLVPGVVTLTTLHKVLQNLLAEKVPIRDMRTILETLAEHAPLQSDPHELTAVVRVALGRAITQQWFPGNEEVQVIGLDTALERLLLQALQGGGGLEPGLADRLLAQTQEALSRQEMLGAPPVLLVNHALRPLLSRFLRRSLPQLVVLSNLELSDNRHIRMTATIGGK
Sequence of FliK (UniProt P26416) (P26416 whole entry, the tested form may be a part): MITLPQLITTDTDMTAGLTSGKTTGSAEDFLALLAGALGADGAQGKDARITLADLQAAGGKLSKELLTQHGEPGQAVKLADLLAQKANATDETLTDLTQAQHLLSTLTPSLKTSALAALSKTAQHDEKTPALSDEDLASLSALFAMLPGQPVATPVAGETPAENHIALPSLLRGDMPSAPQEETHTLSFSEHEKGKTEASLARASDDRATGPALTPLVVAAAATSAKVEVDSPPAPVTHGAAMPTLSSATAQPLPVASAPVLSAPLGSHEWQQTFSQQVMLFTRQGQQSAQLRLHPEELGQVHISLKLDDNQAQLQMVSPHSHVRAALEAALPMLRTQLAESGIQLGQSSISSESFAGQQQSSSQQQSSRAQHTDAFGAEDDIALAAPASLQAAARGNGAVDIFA

cytoplasmic domain of FlhB (FlhBC) (from UniProt P40727 212-383) (domain or fragment)
Kd [1]: 1000 nM | koff [1]: 0.085 s⁻¹ | kon [1]: 85000 M⁻¹ s⁻¹ | Kd [2]: 1100 nM | koff, fast state of the global two-state dissociation fit [2]: 0.13 s⁻¹ | koff, slow state of the global two-state dissociation fit [2]: 0.0047 s⁻¹ | KD of the initial binding event (FliK): 8000 nM | Kd (FliK): 2100 nM | k1 (observed rate constant of initial binding) at 1 uM FlhBC (FliK): 0.05 s⁻¹ | k1 (observed rate constant of initial binding) at 2 uM FlhBC (FliK): 0.1 s⁻¹ | k1 (observed rate constant of initial binding) at 3 uM FlhBC (FliK): 0.2 s⁻¹ | k1 (observed rate constant of initial binding) at 4 uM FlhBC (FliK): 0.25 s⁻¹ | k1 (observed rate constant of initial binding) at 5 uM FlhBC (FliK): 0.25 s⁻¹ | k2 (dissociation of AB to the free proteins), simulation at 1 uM FlhBC (FliK): 0.44 s⁻¹ | k2 (dissociation of AB to the free proteins), simulation at 2 uM FlhBC (FliK): 0.44 s⁻¹ | k2 (dissociation of AB to the free proteins), simulation at 3 uM FlhBC (FliK): 0.44 s⁻¹ | k2 (dissociation of AB to the free proteins), simulation at 4 uM FlhBC (FliK): 0.44 s⁻¹ | k2 (dissociation of AB to the free proteins), simulation at 5 uM FlhBC (FliK): 0.44 s⁻¹ | k3 (shift from AB to AB*), simulation at 1 uM FlhBC (FliK): 0.0085 s⁻¹ | k3 (shift from AB to AB*), simulation at 2 uM FlhBC (FliK): 0.0085 s⁻¹ | k3 (shift from AB to AB*), simulation at 3 uM FlhBC (FliK): 0.0085 s⁻¹ | k3 (shift from AB to AB*), simulation at 4 uM FlhBC (FliK): 0.0085 s⁻¹ | k3 (shift from AB to AB*), simulation at 5 uM FlhBC (FliK): 0.0085 s⁻¹ | k4 (shift from AB* to AB), simulation at 1 uM FlhBC (FliK): 0.008 s⁻¹ | k4 (shift from AB* to AB), simulation at 2 uM FlhBC (FliK): 0.008 s⁻¹ | k4 (shift from AB* to AB), simulation at 3 uM FlhBC (FliK): 0.008 s⁻¹ | k4 (shift from AB* to AB), simulation at 4 uM FlhBC (FliK): 0.008 s⁻¹ | k4 (shift from AB* to AB), simulation at 5 uM FlhBC (FliK): 0.008 s⁻¹ | koff of the initial binding event (FliK): 0.44 s⁻¹ | kon of the initial binding event (FliK): 55000 M⁻¹ s⁻¹

FliK (from UniProt P26416)
Kd [3]: 3200 nM

B1: cytoplasmic domain of FlhB (FlhBC) (domain or fragment)
chain: QIFSHLKKLRMSRQDIRDEFKESEGDPHVKGKIRQMQRAAAQRRMMEDVPKADVIVTNPTHYSVALQYDENKMSAPKVVAKGAGLIALRIREIGAEHRVPTLEAPPLARALYRHAEIGQQIPGQLYAAVAEVLAWVWQLKRWRLAGGQRPPQPENLPVPEALDFMNEKNTDG
modifications: biotin by amine crosslinking (NHS-LC-LC-biotin) when used as ligand
notes: source: E. coli BL21DE3(pLysS), purified (Talon IMAC, gel filtration into HBS-T)
Kd (FliI [4]): 1100 nM | Kd (FliI [5]): 84 nM | koff (FliI [5]): 0.0015 s⁻¹ | kon (FliI [5]): 18000 M⁻¹ s⁻¹

B2: FliH (natural protein)
chain: MSNELPWQVWTPDDLAPPPETFVPVEADNVTLTEDTPEPELTAEQQLEQELAQLKIQAHEQGYNAGLAEGRQKGHAQGYQEGLAQGLEQGQAQAQTQQAPIHARMQQLVSEFQNTLDALDSVIASRLMQMALEAARQVIGQTPAVDNSALIKQIQQLLQQEPLFSGKPQLRVHPDDLQRVEEMLGATLSLHGWRLRGDPTLHHGGCKVSADEGDLDASVATRWQELCRLAAPGVL
modifications: biotin by amine crosslinking (NHS-LC-LC-biotin) when used as ligand
notes: as for B1
KD with the 2 μM sample included [6]: 900 nM | Kd [6]: 800 nM

B3: full-length FlhB(N269A), uncleavable variant (natural protein)
chain: MAEESDDDKTEAPTPHRLEKAREEGQIPRSRELTSLLILLVGVCIIWFGGESLARQLAGMLSAGLHFDHRMVNDPNLILGQIILLIKAAMMALLPLIAGVVLVALISPVMLGGLIFSGKSLQPKFSKLNPLPGIKRMFSAQTGAELLKAVLKSTLVGCVTGFYLWHHWPQMMRLMAESPIVAMGNALDLVGLCALLVVLGVIPMVGFDVFFQIFSHLKKLRMSRQDIRDEFKESEGDPHVKGKIRQMQRAAAQRRMMEDVPKADVIVTAPTHYSVALQYDENKMSAPKVVAKGAGLIALRIREIGAEHRVPTLEAPPLARALYRHAEIGQQIPGQLYAAVAEVLAWVWQLKRWRLAGGQRPPQPENLPVPEALDFMNEKNTDG
stoichiometry N [7]: 2
